{"source": "patent US20240287172A1", "about": "(SCIRHOM, published 2024)", "key": {"hiR2-FL-H585A-T7": {"biological_target": "T1, hiR2-FL-H585A-T7 (human, UniProt Q6PJF5 1-856)", "T1 sequence": "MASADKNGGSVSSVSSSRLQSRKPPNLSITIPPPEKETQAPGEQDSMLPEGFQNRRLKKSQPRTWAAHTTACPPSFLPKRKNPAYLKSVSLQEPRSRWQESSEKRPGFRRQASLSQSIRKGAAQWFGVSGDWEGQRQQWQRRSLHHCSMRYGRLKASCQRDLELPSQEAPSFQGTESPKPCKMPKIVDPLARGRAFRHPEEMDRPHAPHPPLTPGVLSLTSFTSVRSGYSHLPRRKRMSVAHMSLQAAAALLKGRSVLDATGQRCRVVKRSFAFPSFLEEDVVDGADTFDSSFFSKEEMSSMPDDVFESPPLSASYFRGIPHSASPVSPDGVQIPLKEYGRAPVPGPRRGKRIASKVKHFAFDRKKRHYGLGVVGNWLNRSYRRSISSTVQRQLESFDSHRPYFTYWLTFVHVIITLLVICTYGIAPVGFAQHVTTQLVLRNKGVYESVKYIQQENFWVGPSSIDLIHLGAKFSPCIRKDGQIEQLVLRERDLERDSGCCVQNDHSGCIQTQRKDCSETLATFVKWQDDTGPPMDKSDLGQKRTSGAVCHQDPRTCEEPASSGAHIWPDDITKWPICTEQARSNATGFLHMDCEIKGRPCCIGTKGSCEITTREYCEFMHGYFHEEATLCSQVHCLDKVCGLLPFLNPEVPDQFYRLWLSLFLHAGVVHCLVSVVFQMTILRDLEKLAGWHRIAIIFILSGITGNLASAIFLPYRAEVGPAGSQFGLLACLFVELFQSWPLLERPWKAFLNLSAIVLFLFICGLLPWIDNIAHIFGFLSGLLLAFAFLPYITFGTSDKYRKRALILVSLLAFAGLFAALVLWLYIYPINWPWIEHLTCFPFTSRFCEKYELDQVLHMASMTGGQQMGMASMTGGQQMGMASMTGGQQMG", "assay": "FACS on MEF-DKO cells expressing the variant, 3 µg/ml antibody", "method_in_brief": "(§1)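 Two incubations on ice, each 1 hour: test antibody (3 μg/ml) or FACS buffer only, then PE anti-mouse F(ab′)2 at 1:100 in the dark. Centrifugation and washes used 4° C; staining quantified on a flow cytometer.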"}, "hiR2-FL-P575A-T7": {"biological_target": "T2, hiR2-FL-P575A-T7 (human, UniProt Q6PJF5 1-856)", "T2 sequence": "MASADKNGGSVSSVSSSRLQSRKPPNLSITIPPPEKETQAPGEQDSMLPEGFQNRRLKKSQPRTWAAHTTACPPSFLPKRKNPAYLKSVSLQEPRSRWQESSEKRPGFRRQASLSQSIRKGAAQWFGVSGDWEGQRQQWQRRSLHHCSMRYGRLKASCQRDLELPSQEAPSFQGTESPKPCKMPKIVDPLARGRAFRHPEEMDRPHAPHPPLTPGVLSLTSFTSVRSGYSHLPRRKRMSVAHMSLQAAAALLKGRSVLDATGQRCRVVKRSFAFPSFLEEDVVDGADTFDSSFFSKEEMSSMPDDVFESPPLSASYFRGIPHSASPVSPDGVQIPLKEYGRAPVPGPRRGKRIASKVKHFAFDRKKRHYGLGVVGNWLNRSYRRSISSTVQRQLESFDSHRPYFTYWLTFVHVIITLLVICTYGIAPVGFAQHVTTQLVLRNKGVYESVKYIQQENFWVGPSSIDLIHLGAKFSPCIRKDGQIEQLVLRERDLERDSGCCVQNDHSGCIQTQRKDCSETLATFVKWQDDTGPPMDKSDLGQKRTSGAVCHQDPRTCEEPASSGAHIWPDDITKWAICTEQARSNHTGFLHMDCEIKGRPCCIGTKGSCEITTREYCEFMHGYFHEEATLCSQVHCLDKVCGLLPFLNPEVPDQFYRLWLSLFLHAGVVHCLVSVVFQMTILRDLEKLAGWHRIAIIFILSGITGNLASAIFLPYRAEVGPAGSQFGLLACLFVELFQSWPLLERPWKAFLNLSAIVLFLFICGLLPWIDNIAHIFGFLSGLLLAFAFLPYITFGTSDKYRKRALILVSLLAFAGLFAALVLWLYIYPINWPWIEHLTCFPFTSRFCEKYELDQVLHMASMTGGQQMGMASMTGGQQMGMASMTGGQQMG", "assay": "FACS on MEF-DKO cells expressing the variant, 3 µg/ml antibody", "method_in_brief": "as §1"}}, "data": [{"binder": "antibody 3 (antibody, V domains shown, mouse IgG, kappa light chain; also called clone #3; purified antibody 3) VH: QVTLKESGPGILQPSQTLSLTCSFSGFSLTTFAMGIGWVRQPSGKGLEWLAHIWWDGEKYNNPVLKSRLTISKDTSKNQVFLRIANVDTPDTATYYCARISSIYYIIDNWGQGTSVTVSS VL: DIVLTQSPATLSVTPGHSVSLSCRASQSISNNLHWYQKKSHESPRLLIKYVSQSISGIPSRFSGSGSGTDFTLSINSVETEDFGMYFCQQSYNWPLTFGAGTKLELK", "values": [{"measurement": "loss of binding vs wild type", "setting": "hiR2-FL-H585A-T7", "value": "≥ 30", "unit": "%"}, {"measurement": "loss of binding vs wild type", "setting": "hiR2-FL-P575A-T7", "value": "≥ 30", "unit": "%"}]}]}
